Experiment [1] concerns the target T1, Human IL-33-his (human, UniProt O95760 112-270, biotinylated with EZ-Link NHS-Biotin where used as IL-33-his-biotin).
T1 sequence: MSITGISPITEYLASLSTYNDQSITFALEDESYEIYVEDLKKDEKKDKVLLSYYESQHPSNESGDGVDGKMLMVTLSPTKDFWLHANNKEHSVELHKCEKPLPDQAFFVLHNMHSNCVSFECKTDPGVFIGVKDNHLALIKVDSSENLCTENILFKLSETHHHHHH
The experiment can be described thus: cell-based or functional assay.

Experiment [2] deals with T2, IL-33 mutant protein N61A (human, UniProt O95760 112-270).
T2 chain: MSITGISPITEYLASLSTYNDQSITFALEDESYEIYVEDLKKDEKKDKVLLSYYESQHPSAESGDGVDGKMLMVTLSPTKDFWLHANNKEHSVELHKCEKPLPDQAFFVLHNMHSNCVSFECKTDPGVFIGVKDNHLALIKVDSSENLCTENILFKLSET
Nature of the experiment: ELISA as Example 9; row N61A. As for the experimental part: SA protein was diluted to 2 μg/mL to coat ELISA plate at 100 μL/well overnight at 4° C. The plate was washed with PBST (PBS containing 0.05% Tween20) for 3 times, and blocked with 2% BSA prepared in PBS at 200 μL/well, at room temperature for 2 h. After the plate was washed twice with PBST, IL-33-his-biotin protein was diluted to 1 μg/mL with 1% BSA prepared in PBST, and was added to ELISA plate at 100 μL/well. The plate was incubated at room temperature for 1 h, and each monoclonal antibody was diluted with 1% BSA prepared in PBST in a 3-fold gradient. The highest concentration of antibody was 10 μg/mL, and the antibody was diluted for 12 gradients. Each diluted monoclonal antibody was added to ELISA wells with 100 μL/well, and the plate was incubated at room temperature for 1 h. Each sample was added to duplicate wells in parallel. The plate was washed with PBST for 3 times, and HRP-anti human IgG Fc secondary antibody prepared with PBST was diluted at an appropriate ratio, and was added to ELISA wells at 100 μL/well. […] Each reaction solution was shaken uniformly and OD450 nm was read on a microplate reader. The data was analyzed and EC₅₀ was calculated.
Subsequently, according to the experimental method of Example 9, the affinity of the above mutant proteins to 874F7-Hu1 was determined, and IL-33 proteins (WT-1, WT-2, WT-3, and WT-4) without any mutation were set as controls.

Experiment [3] has as its target T1, Human IL-33-his. Nature of the experiment: ELISA as Example 9, IL-33-his-biotin on streptavidin plate.
For the next experiment, the target named is T3, Pep1 (human, N-terminal biotin).
T3 construct: Synthetic 20-mer of human IL-33
T3 peptide: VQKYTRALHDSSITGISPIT
Nature of the experiment: ELISA, biotinylated peptide on streptavidin plate, antibody 10 µg/mL, well 1. Here is the method:
(§1) To determine the binding activity of antibody to each polypeptide fragment, the ELISA plate was pre-coated by biotin-avidin (SA) which was diluted in coating solution (50 mM carbonate coating buffer, pH 9.6) to 2 μg/ml at 4° C. overnight. The plate was washed with PBST for 3 times, and then blocked with 2% BSA prepared in PBS at room temperature for 2 h with 200 μL/well. The plate was washed once with PBST, and 864F3 and 874F7 with final concentrations of 10 μg/mL were added at 100 μL/well, respectively, and the plate was incubated at room temperature for 1 h. The plate was washed with PBST for 3 times, and the goat anti-mouse IgG labeled by HRP was added and placed at 37° C. for 30 min. After washing the plate with PBST for 3 times, the plate was patted on the absorbent paper to remove residual droplets as far as possible. 100 μl TMB developing solution was added to each well, and the plate was placed at room temperature (20±5° C.) for 5 minutes away from light; 50 μl 2M H₂SO₄ terminating solution was added to each well to terminate the substrate reaction. OD values were read at 450 nm on the microplate reader to analyze the binding ability of the antibody to each polypeptide fragment. The experimental results are shown in […]

Another experiment has as its target T4, Pep2 (human, N-terminal biotin).
T4 construct: Synthetic 20-mer of human IL-33
T4 peptide: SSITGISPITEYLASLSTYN
The description is as above. Here is the method:
as §1

The target in a further experiment is T5, Pep3 (human, N-terminal biotin).
T5 construct: Synthetic 20-mer of human IL-33
T5 peptide: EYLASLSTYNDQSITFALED
The experiment is described as above. Here is the method:
as §1

The target of another experiment is T6, Pep4 (human, N-terminal biotin).
T6 construct: Synthetic 20-mer of human IL-33
T6 peptide: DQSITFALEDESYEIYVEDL
Described as above. As for the experimental part:
as §1

In the next experiment the target is T7, Pep6 (human, N-terminal biotin).
T7 construct: Synthetic 20-mer of human IL-33
T7 peptide: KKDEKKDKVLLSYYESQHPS
The experiment is described as above. As for the experimental part: as §1

The target in another experiment is T8, Pep8 (human, N-terminal biotin).
T8 construct: Synthetic 20-mer of human IL-33
T8 peptide: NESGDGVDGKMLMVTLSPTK
Described as above. As for the experimental part: as §1

For another experiment, the target named is T9, Pep9 (human, N-terminal biotin).
T9 construct: Synthetic 20-mer of human IL-33
T9 peptide: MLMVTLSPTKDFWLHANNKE
The experiment is described as above. Here is the method:
as §1

In the next experiment the target is T10, Pep10 (human, N-terminal biotin).
T10 construct: Synthetic 20-mer of human IL-33
T10 peptide: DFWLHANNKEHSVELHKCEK
Described as above. As for the experimental part: as §1

A further experiment has as its target T11, Pep12 (human, N-terminal biotin).
T11 construct: Synthetic 20-mer of human IL-33
T11 peptide: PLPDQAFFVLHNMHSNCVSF
The experiment is described as above. Here is the method:
as §1

The next experiment addresses T12, Pep13 (human, N-terminal biotin).
T12 construct: Synthetic 20-mer of human IL-33
T12 peptide: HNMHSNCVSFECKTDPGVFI
Described as above. As for the experimental part: as §1

The target in the next experiment is T13, Pep14 (human, N-terminal biotin).
T13 construct: Synthetic 20-mer of human IL-33
T13 peptide: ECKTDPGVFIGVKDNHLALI
Described as above. As for the experimental part:
as §1

Another experiment addresses T14, Pep15 (human, N-terminal biotin).
T14 construct: Synthetic 20-mer of human IL-33
T14 peptide: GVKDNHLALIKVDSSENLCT
Described as above. As for the experimental part:
as §1

B1: 874F7-Hu1 (antibody, human IgG4 S228P, kappa)
heavy: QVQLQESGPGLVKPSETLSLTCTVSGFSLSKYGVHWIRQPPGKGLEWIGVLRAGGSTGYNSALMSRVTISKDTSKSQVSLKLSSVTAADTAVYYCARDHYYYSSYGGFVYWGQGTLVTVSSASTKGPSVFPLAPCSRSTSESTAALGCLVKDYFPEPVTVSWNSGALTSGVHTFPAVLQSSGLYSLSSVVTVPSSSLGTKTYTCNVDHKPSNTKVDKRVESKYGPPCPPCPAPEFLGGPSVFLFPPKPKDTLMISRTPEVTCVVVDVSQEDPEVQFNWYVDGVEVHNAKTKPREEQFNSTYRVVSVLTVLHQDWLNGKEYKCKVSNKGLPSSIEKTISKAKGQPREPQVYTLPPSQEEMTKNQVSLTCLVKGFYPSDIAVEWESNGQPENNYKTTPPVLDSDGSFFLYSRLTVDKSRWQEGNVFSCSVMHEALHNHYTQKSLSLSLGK
light: DIQMTQSPSSVSASVGDRVTITCLASQTIGAWLAWYQQKPGKSPKLLIYAATRLADGVPSRFSGSGSGTDFTLTISSLQPEDFATYYCQQLDSSPYTFGQGTKVEIKRTVAAPSVFIFPPSDEQLKSGTASVVCLLNNFYPREAKVQWKVDNALQSGNSQESVTEQDSKDSTYSLSSTLTLSKADYEKHKVYACEVTHQGLSSPVTKSFNRGEC
notes: also called 874F7-Hul; humanized antibody 874F7-Hu1
B1: in the experiment with Human IL-33-his [1], the “IC50 of inhibition of IFNγ secretion by NK cells induced by IL-33” value amounted to 742 pM, the “IC50 of inhibition of IL-5 secretion of KU812 cells induced by IL-33” value is 7830 pM, the “IC50 of inhibition of IL-13 secretion of KU812 cells induced by IL-33” value amounted to 5220 pM and the “IC50 of the inhibitory effect on IL-6 expression in HUVEC cells induced by IL-33” value is 51 pM. Besides, the “IC50 of the inhibitory effect on the IFN-γ secretion of PBMC induced by IL-33” value with Human IL-33-his [1] is 850 pM. This molecule also came in with an EC50 in experiment [2] of 150 pM. The molecule also had a concentration giving a half-maximal response (EC50) with Human IL-33-his [3] of 129 pM.

B2: 874F7 (antibody, V domains shown)
VH: QVQLKESGPGLVAPSHSLSITCNVSGFSLSKYGVHWIRQIPGRGLDWLGVLRAGGSTGYNSALMSRLSISKDSSKSQVFLKMNDLRTDDTAVYFCVRDHYYYSSYGGFVYWGQGTLVTVSA
VL: DIQMTQSPASQSASLGESVTITCLASQTIGAWLAWYRQQPGKSPQLLIYAATRLADGVPSRFSGSGSGTEFSFKINNLQAEDFVSYYCQQLDSSPYTFGGGTRLEM
notes: Murine hybridoma antibody purified on Protein G; also called murine antibody 874F7
For the molecule B2, in the experiment with Human IL-33-his [1], the “IC50 of inhibition of IL-33-induced IL-6 expression in HUVEC cells” value was 650 pM. The “IC50 of inhibition of IL-33-induced IL-8 expression in HUVEC cells” value with Human IL-33-his [1] worked out at 350 pM. Moreover, the OD450 with Pep1 stood at 0.074 OD450; with Pep2 it was 0.056 OD450; with Pep3, 0.053 OD450; with Pep4, 0.05 OD450; in the experiment with Pep6 it was 1.04 OD450; with Pep8 it was 0.053 OD450. Further, the OD450 with Pep9 came out at 0.065 OD450; with Pep10 it was 0.053 OD450; with Pep12, 0.056 OD450; in the experiment with Pep13 it was 0.054 OD450; with Pep14, 0.059 OD450; with Pep15, 0.055 OD450.

These data come from patent US20230399394A1 (SUNSHINE GUOJIAN PHARMACEUTICAL SHANGHAI, published 2023).
